assay: soluble on expression in E. coli; label from the status in PepcDB or PDB records

Sequence	soluble on expression in E. coli
MDSIIELRHLKTLLALEETGSVSLAAKRVFLTQSALSHQIRMLENHYGTPLFERKSTPLRFTPVGERLLRLAHELIPQVAVAEWDLARITEGEAGELRIAVECHTCFDWLMPAMGEFRPMWPQVELDIVSGFQADPVGLLLQHRADLAIVSEAEKQNGISFQPLFAYEMVGICAPDHPLAAKNVWTAEDFIGETLITYPVPDEMLDLPKKILIPKNINPPRRHSELTIAIIQLVASRRGIAALPYWTVMPYLEKGYVVHRQITADGLQSKLYAAIRTEDTDKSYLNNFCQIIRERGFADLPGLSELEPV	not soluble
MDSRLSDFLARAESVLARLEPLLPAVREAVDWERSLAARWHRDGRSGYLQPLEVSLDLRLADLLGVERQREQLERNTRQFVAGQPANHALLWGARGTGKSSLVRALLAELAGAGLRLIEIERDHLADLPRVVEQLQGLPQRFVLFCDDLSFDAGEGDYRVLKSVLDGSLEQAPENVLLYATSNRRHLVSEKQSDNENWKMVDGELHPNEAVEDKIALSDRFGLWLSFYPFTQEHFLSVVHHWVDVLAEKAGLAWSWSEELEKEAIRWALGRGNRNGRCAYQFSRYWVGKQLLERQA	not soluble
MDSSNPSSLPLEKSSGNVQKGKLLNIWSRCIAQPSSFLGSSISRFWANADIKNRVCSAAIGRVNFVSKCLKKFPEVSLSCNISASLSLNTGKEKVKNEDLEKQERCHKVAMIEYEIQNLERQLKKRQF	not soluble
MDSSNYFYGGNNICIINTKWGKHSGIGGYAEIIDTLVGNFTNISSWAKIGIRDHIHTNFLICDFVYKDNDHIMPPGISSFEDYWVKIGNDVWVGTNVTILRGVEVGDGAVIAAGSVVTKSIPPYAIVGGNPAKFIKWRFPFEVREKLLEIKLEHHHHHH	not soluble
MDSTKVTLTVRGSTAFGEVIAVVGSCETLGSWCQQKAVTLQPAEEDGTLWRTTIHVPRGAETKYRYFKAFILESKNAGGPCQVIVNRWETHQLPRSLSPSEPELVVDDGHFGVHDGAECVDSGWLTCQTEIRLRLHYSVKPPVSITKKKFKTSRIRLKPMLEGVEEEEDED	soluble
MDTISDVQIHWRKKDYLSMSLLDDFGIAETTVKEHSVNDQIIVTLSADHRVRMIIRYEMDESHIPMIKNLVIRAFFIGSQ	soluble
MDTYKLILNGKTLKGETTTEAVDAATAEKVFKHYANEHGVHGHWTYDPETKTFTVTE	soluble
MDVIRSSASDILGALRSRQLSSEAVMEATLARIAAVNPELNAIVALRPTDELLAEARAADAVAPEARGALHGLPIAVKDLVETAGIVSSHGSPLFRDHVPERDDLIAARIRAAGAILIGKTNVPEFGLGSHTFNPVYGATGNPYAPNLTCGGSSGGAAVALATGMTALADGSDMMGSLRNPAAWCNVYGFRPSWGRVPSEPLGDTFLHQLATLGPMGRSPADIAILLDVISGADPRQPHGFDSAPVAPLRPAATRGLRLGWLGDWGGAFPTEPGILPLCETALKIFSDLGCTVEKVPPPFDAEALWESWITLRSWSVGAGLAPLSEKRAQLKDSAQWELDRGLALSAMEVDRASVTRSAWFMRATELFESYDALILPSAQVWPFDLDRPYPTEIAGQAMDTYHRWMQVVTPVSLIGLPSLAMPAGFGDAGLPMGVQIFGPRGGDAALLALGEAYHAATTWPQRHP	not soluble
MDVKHNPKKEVIERSLNATEKAIESIREGDLVRRHTVLELRDMQISMSEDFDQIRGMMHELDHQIDKERAENSKWMNRKMEKAKATADQALASTLMVKDVQLLEKKVNILKDSVIQVNKAFYKYEKDVDMKDLMDQVTDMVHRTEKKEQDALEPHATDEQAIEKAFRGAIEGLYGLKSSNPKVMEEAKLLAGEMRVFRDAAANKNFHSMISKVAPGKSGVSLDSSSSESSFSTSASSSLAKPNGKSSSSAASSISGSH	not soluble
MDVPADSHIKYEDAIDYWTDVDATVDGVLGGYGEGTVVPTMDVLGSNNFLRKLKSRMLPQENNVKYAVDIGAGIGRVSKTMLHKHAAKIDLVEPVKPFIEQMHVELAELKDKGQIGQIYEVGMQDWTPDAGKYWLIWCQWCVGHLPDAELVAFLKRCIVGLQPNGTIVVKENNTPTDTDDFDETDSSVTRSDAKFRQIFEEAGLKLIASERQRGLPRELYPVRMYALKPMPN	soluble
MDVTATPRPHSNTQRPTQAYYVPRKLLECGRGPQSKPTTIDKNEKPIQTSAQQKQKPRPLMDTVISAPPSSLKEKSPQSNRQTKSNKKSSPPPRKSPVMTSSYQVQYPNSPRDLHLVSSTPSSRSSSSMSSNNGIVSPTLTVSSPRIVKGGPQKYSMSRPNAFAPMIAQSDEKECICDRKNTHVVCKRCGYECVGRVQVTCGKHPLILALNDLRECPNPVCHSVQLLECDELDDQDVHDDGVEQLLAEPIEKIDLLS	not soluble
MDVTNDDYIRLLSALLPPGPVWSASDPAIAGAAPSLTRVHQRADALMRELDPRTTTELINRWERLCGLPDECIPAGTQTLRQRQQRLDAKVNLAGGINEDFYLAQLAALGRPDATITRYDKSTFTCSSACTDAVNAPEWRYYWQVNMPATTNSTWMTCGDPCDSALRIWGDTVVECVLNKLCPSHTYVIFKYPE	soluble
MDWEERENPKRLVKTFAFPNFREALDFANRVGALAERENHHPRLTVEWGRVTVEWWTHSAGGVTEKDREMARLTDALLQR	soluble
MDWTRRLRLQHLQLLVSLMETGNLSGTARAAHTTQPGLSKWLKELEEDVGAPLFERHARGLRPTPYGMTLFNHAQRVLTEMERARQNLEAMRSGSGSRVLLGTSPASAPSLVPRALRAFLGRYPGAQVELLEGTMNGLLERLEKRQLDVVVGRLDNYAPRASLRCEVLYSEAIVVMARPGHPLAQAAALDWEDVRRYDWIVWPPGSPIRSKLDMALTQGGRQPPAYRLESSSMLANIELLRGSDMLSIGSARVVEHLAGLGLVARLALEIPGEGAVGMCWRDEPHRDRASEDLLACLREGAAAE	not soluble
MDYDQQPIMYDEVELLIQAVDQQPHPLLRLRDKAIIQLGLQGGFRRSELANLKVHYLSFMRDKLKVRLPFSKSNQQGLREWKSLPDSEPFAAYHAVKSWLNESQITDGHLFRSISRDGKTLRPYHVNDNSKPKSTFSRNSGFLNGDDIYRIIKQYCLKAGLPAQYYGAHSLRSGCVTQLHENNKDILYIMARTGHTDPRSLRHYLKPKEDLEHHHHHH	not soluble
MDYEIENNHADSIRRGSIEVICGSMFSGKTEELLRRLRRAKIARQTVEIFKPTIDIRYDETDVVSHDKNAIASTPVDNSANILLLSSQVDVVGIDEAQFFDEGLVEVAQQLADQGVRVVIAGLDMDFRRQPFGPMPGLCAIADSVTKVHAVCVECGRLASYSFRRVQGDQQVMLGELNEYSPLCRTCYRKCSSPPQTEEIHSTILEHHHHHH	soluble
MDYEILFSDETMNYADAGTYCQSRGMALVSSAMRDSTMVKAILAFTEVKGHDYWVGADNLQDGAYNFLWNDGVSLPTDSDLWSPNEPSNPQSWQLCVQIWSKYNLLDDVGCGGARRVICEKELDD	soluble
MDYKMNNLQLEALLNETLSPQLIKDYCPNGLQVEGKVEVKRIVTGVTASMALIEAAIELKADALLVHHGYFWKNEPEAIRGMKGRRIRTLIQNDLNLYAYHLPLDIHPQLGNNAQLAQRLGICVDGGLEGHPQSVAMFGHFLQPLTGEELAHRIGQVLNRTPLHIAPDQADKLIETVGWCTGGGQDYIELAASRGLDAFISGEISERTTYSAREQSIHYFSAGHHATERYGIKALGEWLAENHGFDVTFIDIDNPVLEHHHHHH	soluble
MDYNNITEALQAFRTEKAYRHAPLRSCFFDMDGVLFDSMPAHARSWVEAAGECGIAAEPLDFYRWEGQKGSDTIKILFERGYGRLPTEKEIADMYGRKSQLFALYNSGNVIDDAPALVSDVCDRGLRIMLVTGSSQTDILQRLQRSYGDNFSPANMVTGADVHRGKPHPEPYLKALECVGMSPSEAFVVENAPLGVR	not soluble
MEADVEQQALTLPDLAEQFAPPDIAPPLLIKLVEAIEKKGLECSTLYRTQSSSNLAELRQLLDCDTPSVDLEMIDVHVLADAFKRYLLDLPNPVIPAAVYSEMISLAPEVQSSEEYIQLLKKLIRSPSIPHQYWLTLQYLLKHFFKLSQTSSKNLLNARVLSEIFSPMLFRFSAASSDNTENLIKVIEILISTEWNERQPAPALPPKPPKPTTVAN	soluble
MEAEGFPRLFHNFENVPEPKECKKVGSVPSYLTGTMLRNGPGMFTVGEEEYKHWFDGLGFMQRYHFEDGKMFYSARYLESEAYTKTVEAQRIVAGTFGTLSFPDPCKTIFSKYFSEFMNHSEKHDNSNVAFTPVGDSLYACTETPHMYRVDLDTLKTLEAADFSKFVAVHSCTAHQLYDENGDVYNIGSRFGPESAHVFTVTKNPKNQKSENDHSWEHTSKIGEIKASDPLYPTYMHSFGMSENYLVMFESPVRLHLQKYLLSEFVRATYHDCLEWHGDKDVSIFILNKKTGEQLPLTLKMNPFFTFHHANTFEKDGCLVMDYCRIENAGKFDTLLISNMKTGEFQYDAKFLPYLTRVIVPMSVSSSAKPGDNLLKSVPWASGCTSILQDDGSIRLTERRVCETSMEFPRYHWEKINMKEYRYVFGSTVFGRIDGNLAGVVKADLKFGNHLIWNRENPHQICGEPIFVPNPEGIEEDDGILIVPIMSSSEKQVPFVLILDAKTLEETARFEIPEARIPLGFHAFYKPKN	not soluble
MEALILEPSLYTVKAILILDNDGDRLFAKYYDDTYPSVKEQKAFEKNIFNKTHRTDSEIALLEGLTVVYKSSIDLYFYVIGSSYENELMLMAVLNCLFDSLSQMLRKNVEKRALLENMEGLFLAVDEIVDGGVILESDPQQVVHRVALR	soluble
MEATRNETKPVWVYIIFRKNHCSGHEKMTVNISFDGPIFWKRQVAYIYCCSCHFDEHEGPLMAILEKFEQRVERVCLVDKPVDYPFLPDSLFSYMANKMPKLQFIYLRELDLEKINRGTVVELANHPNLKKVIVHLCRNYEVLEDFRNLPQLLVVKGEIMGLKVSTW	not soluble
MECPKEIVLLMHSYFDGDLQPEGEQQLKEHLRSCAACAAHFHELKKTVAFLQYAAHVAAPPSFAAKVMEAMPKERKTARLRRFMHRHPLLTAASLFLALTLGSLASSWGERGAFSVSADEHVIIRDHTVIVPKGETVKGDIVVRNGSIRIEGTVDGDVTVIHGKKYMASAGQVTGEVEEINQVFEWIWYNIKERFNRALQSIE	not soluble
MEDGPNEFRAWLAEIGPSWIDVFPREEDPTPEYILFGGRWNSSERDEGRRIIVNVACLLFPEESTSACQREIWTSSQYELGNLETQTTLSLRSSCPDGAKLVGGGCSTEAVGSYRYVQVIQSGFAQDDPDAWLCSWANTSDDEQTQAMAMAYCLHEEPLPAECGCCPTMAETITVKREDEPLRFGPNRLEVSCDEGQTLVLGNCTLDVDDITPFRDVTMFRSGFPPTEEHPDGDRSRWGCSWYNPTGMAPRAIATAVCLPAE	not soluble

Reference: the DeepSol protein solubility set
